Test results taken from patent US20230136228A1.

Assays:
human CEACAM8 (human) [1] = biological target: human CEACAM8 (human) (UniProt P31997); experiment: flow cytometry, MFI on transfected PEAK cells divided by MFI on WT PEAK cells
human CEACAM1 (human) [2] = biological target: human CEACAM1 (human) (UniProt P13688); experiment: as above
[3] = biological target: human CEACAM5 (carcinoembryonic antigen, CEA), cell surface (human) (UniProt P06731); experiment: as above
human CEACAM4 (human) [4] = biological target: human CEACAM4 (human) (UniProt O75871); experiment: as above
human CEACAM4 (human), sequence (O75871 36-244): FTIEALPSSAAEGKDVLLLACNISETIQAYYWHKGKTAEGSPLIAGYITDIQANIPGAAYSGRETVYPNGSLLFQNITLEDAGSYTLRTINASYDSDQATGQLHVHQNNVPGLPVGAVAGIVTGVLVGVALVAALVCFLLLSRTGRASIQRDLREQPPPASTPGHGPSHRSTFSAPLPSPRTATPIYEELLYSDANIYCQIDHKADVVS

human CEACAM3 (human) [5] = biological target: human CEACAM3 (human) (UniProt P40198); experiment: as above
human CEACAM3 (human), sequence (P40198 35-252): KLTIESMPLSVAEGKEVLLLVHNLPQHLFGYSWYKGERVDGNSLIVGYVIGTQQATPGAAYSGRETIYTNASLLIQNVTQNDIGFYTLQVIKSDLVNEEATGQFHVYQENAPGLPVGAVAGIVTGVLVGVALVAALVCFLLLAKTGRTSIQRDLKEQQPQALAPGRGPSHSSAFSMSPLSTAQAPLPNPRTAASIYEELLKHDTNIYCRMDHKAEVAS

human CEACAM6 (human) [6] = biological target: human CEACAM6 (human) (UniProt P40199); experiment: as above
human CEACAM6 (human), sequence (P40199 35-320): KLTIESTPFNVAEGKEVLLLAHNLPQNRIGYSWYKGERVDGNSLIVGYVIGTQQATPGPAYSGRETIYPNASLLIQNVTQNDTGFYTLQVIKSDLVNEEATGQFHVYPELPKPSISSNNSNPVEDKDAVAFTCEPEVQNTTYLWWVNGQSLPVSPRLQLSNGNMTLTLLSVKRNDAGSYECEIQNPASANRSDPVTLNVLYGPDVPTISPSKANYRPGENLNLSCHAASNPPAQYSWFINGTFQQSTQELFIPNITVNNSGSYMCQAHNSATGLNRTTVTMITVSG

human CEACAM8 (human) [7] = biological target: human CEACAM8 (human) (UniProt P31997); experiment: flow cytometry, transfected PEAK cells, equimolar to 10 mcg/ml full-size antibody
human CEACAM1 (human) [8] = biological target: human CEACAM1 (human) (UniProt P13688); experiment: as above
[9] = biological target: human CEACAM5 (carcinoembryonic antigen, CEA), cell surface (human) (UniProt P06731); experiment: as above
human CEACAM4 (human) [10] = biological target: human CEACAM4 (human) (UniProt O75871); experiment: as above
human CEACAM3 (human) [11] = biological target: human CEACAM3 (human) (UniProt P40198); experiment: as above
human CEACAM6 (human) [12] = biological target: human CEACAM6 (human) (UniProt P40199); experiment: as above

human CEACAM1 (human), sequence (P13688 35-526): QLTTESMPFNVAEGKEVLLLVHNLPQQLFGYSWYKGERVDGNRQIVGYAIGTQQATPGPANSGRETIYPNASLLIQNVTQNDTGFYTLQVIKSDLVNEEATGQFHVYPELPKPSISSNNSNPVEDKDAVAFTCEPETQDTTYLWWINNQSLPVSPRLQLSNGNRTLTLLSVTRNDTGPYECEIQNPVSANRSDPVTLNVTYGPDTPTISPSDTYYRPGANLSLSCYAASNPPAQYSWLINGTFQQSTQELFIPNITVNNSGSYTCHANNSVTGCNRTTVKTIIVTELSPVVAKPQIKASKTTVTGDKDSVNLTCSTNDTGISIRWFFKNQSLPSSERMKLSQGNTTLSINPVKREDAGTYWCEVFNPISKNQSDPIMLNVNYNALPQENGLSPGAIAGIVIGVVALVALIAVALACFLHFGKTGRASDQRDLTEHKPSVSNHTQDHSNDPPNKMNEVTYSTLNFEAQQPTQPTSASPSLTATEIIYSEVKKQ
human CEACAM5 (carcinoembryonic antigen, CEA), cell surface (human), sequence (P06731 35-685 limits assumed): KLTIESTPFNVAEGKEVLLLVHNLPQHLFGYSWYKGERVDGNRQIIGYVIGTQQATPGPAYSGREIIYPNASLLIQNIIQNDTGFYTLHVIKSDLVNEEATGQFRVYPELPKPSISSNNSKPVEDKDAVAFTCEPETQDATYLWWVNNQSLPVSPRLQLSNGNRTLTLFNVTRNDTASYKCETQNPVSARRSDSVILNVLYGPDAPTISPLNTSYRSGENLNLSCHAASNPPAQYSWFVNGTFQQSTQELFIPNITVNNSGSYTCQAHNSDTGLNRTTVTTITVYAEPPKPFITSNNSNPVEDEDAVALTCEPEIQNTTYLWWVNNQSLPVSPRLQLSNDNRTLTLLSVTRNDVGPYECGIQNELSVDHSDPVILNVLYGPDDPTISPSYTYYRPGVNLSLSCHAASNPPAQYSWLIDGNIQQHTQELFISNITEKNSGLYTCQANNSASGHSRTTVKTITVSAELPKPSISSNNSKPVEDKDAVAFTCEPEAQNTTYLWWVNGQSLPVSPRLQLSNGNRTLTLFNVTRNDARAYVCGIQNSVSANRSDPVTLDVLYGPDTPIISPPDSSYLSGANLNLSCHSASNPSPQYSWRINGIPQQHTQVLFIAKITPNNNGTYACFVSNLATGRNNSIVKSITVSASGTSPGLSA
human CEACAM8 (human), sequence (P31997 35-320): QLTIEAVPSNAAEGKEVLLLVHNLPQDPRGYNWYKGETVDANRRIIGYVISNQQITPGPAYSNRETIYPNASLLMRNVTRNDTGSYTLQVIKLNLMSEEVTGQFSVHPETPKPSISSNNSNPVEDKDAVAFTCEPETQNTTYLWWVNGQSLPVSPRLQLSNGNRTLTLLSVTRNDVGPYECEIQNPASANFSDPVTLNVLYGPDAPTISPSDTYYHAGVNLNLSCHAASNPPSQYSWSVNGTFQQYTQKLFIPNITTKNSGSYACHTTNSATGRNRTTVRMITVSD

## MEDI-565 BiTE (bispecific antibody)
Human CEACAM8 (human) [1]
  Factor to PEAK WT: 20.4 fold
Human CEACAM1 (human) [2]
  Factor to PEAK WT: 1.2 fold
[3]
  Factor to PEAK WT: 15.7 fold
Human CEACAM4 (human) [4]
  Factor to PEAK WT: 1.1 fold
Human CEACAM3 (human) [5]
  Factor to PEAK WT: 0.8 fold
Human CEACAM6 (human) [6]
  Factor to PEAK WT: 1.6 fold
Human CEACAM8 (human) [7]
  MFI: 24000 MFI
Human CEACAM1 (human) [8]
  MFI: 1470 MFI
[9]
  MFI: 18400 MFI
Human CEACAM4 (human) [10]
  MFI: 1340 MFI
Human CEACAM3 (human) [11]
  MFI: 943 MFI
Human CEACAM6 (human) [12]
  MFI: 1830 MFI
